From patent US20140087995A1 (published 2014)
Numbered stars: 1 amine (or outer) side, 2 acyl side, 3 side chain; on linkers, the order of the positions; unused ones are H or OH. Bridge positions count the residues as written; N and C are the ends. Side chains are listed from the residue outwards. Ends that are not written are not given here. * marks the point of attachment. C20 diacid = O=C(O)CCCCCCCCCCCCCCCCCCC(=O)*; C18 diacid = O=C(O)CCCCCCCCCCCCCCCCC(=O)*; C16 diacid = O=C(O)CCCCCCCCCCCCCCC(=O)*; γGlu = O=C(O)[C@H](CCC(=O)[*:2])N[*:1]; C14 diacid = O=C(O)CCCCCCCCCCCCC(=O)*

T1: rat calcitonin receptor (rat, UniProt P32214 25-516)
T1 construct: whole, on cells; Membranes of transiently transfected BHK tk'ts 13 cells (Assay VIII); also called rCTR
T1 sequence (looked up): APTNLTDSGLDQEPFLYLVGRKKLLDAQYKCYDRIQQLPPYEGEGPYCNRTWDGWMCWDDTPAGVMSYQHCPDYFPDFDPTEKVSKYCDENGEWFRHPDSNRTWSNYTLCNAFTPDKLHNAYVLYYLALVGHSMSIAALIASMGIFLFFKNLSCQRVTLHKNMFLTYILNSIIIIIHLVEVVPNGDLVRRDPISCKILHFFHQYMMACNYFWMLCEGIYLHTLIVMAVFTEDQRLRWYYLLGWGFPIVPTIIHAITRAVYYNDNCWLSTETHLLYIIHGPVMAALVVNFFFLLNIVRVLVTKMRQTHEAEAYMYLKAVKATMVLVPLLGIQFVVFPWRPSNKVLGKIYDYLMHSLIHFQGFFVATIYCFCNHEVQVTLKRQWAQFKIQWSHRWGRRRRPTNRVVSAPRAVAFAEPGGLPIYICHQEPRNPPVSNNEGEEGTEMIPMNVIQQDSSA

T2: human calcitonin receptor (human, UniProt P30988 25-474)
T2 construct: whole, on cells; Membranes of a stably transfected BHK cell line (Assay VII); also called hCTR; hCT
T2 sequence (looked up): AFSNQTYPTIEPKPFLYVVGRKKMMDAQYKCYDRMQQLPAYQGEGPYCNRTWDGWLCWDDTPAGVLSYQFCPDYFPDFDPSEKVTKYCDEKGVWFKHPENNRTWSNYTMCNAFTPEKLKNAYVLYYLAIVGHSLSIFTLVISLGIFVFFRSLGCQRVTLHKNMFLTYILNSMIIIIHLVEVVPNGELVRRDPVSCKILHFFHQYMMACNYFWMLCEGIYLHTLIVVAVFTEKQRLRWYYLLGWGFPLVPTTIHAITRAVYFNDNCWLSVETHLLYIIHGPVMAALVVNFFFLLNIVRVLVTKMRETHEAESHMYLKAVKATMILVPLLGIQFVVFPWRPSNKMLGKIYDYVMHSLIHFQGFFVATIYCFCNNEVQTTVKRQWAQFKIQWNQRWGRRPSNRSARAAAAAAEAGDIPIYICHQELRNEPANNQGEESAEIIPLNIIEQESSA

T3: rat amylin receptor (rat calcitonin receptor + rat RAMP 3) (rat, UniProt P32214 25-516; Q9JJ73 23-147)
T3 construct: whole, on cells; Membranes of transiently transfected BHK tk'ts 13 cells (Assay VI); also called rAmylin-R; rat amylin 3(a) receptor
T3 sequence (looked up) 1: T1 sequence (looked up)
T3 sequence (looked up) 2: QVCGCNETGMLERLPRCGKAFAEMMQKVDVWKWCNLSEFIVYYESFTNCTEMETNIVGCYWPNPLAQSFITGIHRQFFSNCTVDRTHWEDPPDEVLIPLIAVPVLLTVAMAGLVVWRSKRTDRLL

B1: N^ε1-[(4S)-4-carboxy-4-(13-carboxytridecanoylamino)butanoyl]-[Arg17,Pro21,Pro27,His34]-h-amylin (peptide)
peptide: K([γGlu-C14 diacid])CNTATCATQRLANFLRHSSPNFGAIPSSTNVGHNTY-NH2
modifications: disulfide 2-7; N-terminus assumed
SMILES: CC[C@H](C)[C@H](NC(=O)[C@H](C)NC(=O)CNC(=O)[C@H](Cc1ccccc1)NC(=O)[C@H](CC(N)=O)NC(=O)[C@@H]1CCCN1C(=O)[C@H](CO)NC(=O)[C@H](CO)NC(=O)[C@H](Cc1c[nH]cn1)NC(=O)[C@H](CCCNC(=N)N)NC(=O)[C@H](CC(C)C)NC(=O)[C@H](Cc1ccccc1)NC(=O)[C@H](CC(N)=O)NC(=O)[C@H](C)NC(=O)[C@H](CC(C)C)NC(=O)[C@H](CCCNC(=N)N)NC(=O)[C@H](CCC(N)=O)NC(=O)[C@@H](NC(=O)[C@H](C)NC(=O)[C@@H]1CSSC[C@H](NC(=O)[C@@H](N)CCCCNC(=O)CC[C@H](NC(=O)CCCCCCCCCCCCC(=O)O)C(=O)O)C(=O)N[C@@H](CC(N)=O)C(=O)N[C@@H]([C@@H](C)O)C(=O)N[C@@H](C)C(=O)N[C@@H]([C@@H](C)O)C(=O)N1)[C@@H](C)O)C(=O)N1CCC[C@H]1C(=O)N[C@@H](CO)C(=O)N[C@@H](CO)C(=O)N[C@H](C(=O)N[C@@H](CC(N)=O)C(=O)N[C@H](C(=O)NCC(=O)N[C@@H](Cc1c[nH]cn1)C(=O)N[C@@H](CC(N)=O)C(=O)N[C@H](C(=O)N[C@@H](Cc1ccc(O)cc1)C(N)=O)[C@@H](C)O)C(C)C)[C@@H](C)O
B2: N^ε1-[(4S)-4-carboxy-4-(17-carboxyheptadecanoylamino)butanoyl]-[Arg17,Pro21,Pro27,His34]-h-amylin (peptide)
peptide: K([γGlu-C18 diacid])CNTATCATQRLANFLRHSSPNFGAIPSSTNVGHNTY-NH2
modifications: disulfide 2-7; N-terminus assumed
SMILES: CC[C@H](C)[C@H](NC(=O)[C@H](C)NC(=O)CNC(=O)[C@H](Cc1ccccc1)NC(=O)[C@H](CC(N)=O)NC(=O)[C@@H]1CCCN1C(=O)[C@H](CO)NC(=O)[C@H](CO)NC(=O)[C@H](Cc1c[nH]cn1)NC(=O)[C@H](CCCNC(=N)N)NC(=O)[C@H](CC(C)C)NC(=O)[C@H](Cc1ccccc1)NC(=O)[C@H](CC(N)=O)NC(=O)[C@H](C)NC(=O)[C@H](CC(C)C)NC(=O)[C@H](CCCNC(=N)N)NC(=O)[C@H](CCC(N)=O)NC(=O)[C@@H](NC(=O)[C@H](C)NC(=O)[C@@H]1CSSC[C@H](NC(=O)[C@@H](N)CCCCNC(=O)CC[C@H](NC(=O)CCCCCCCCCCCCCCCCC(=O)O)C(=O)O)C(=O)N[C@@H](CC(N)=O)C(=O)N[C@@H]([C@@H](C)O)C(=O)N[C@@H](C)C(=O)N[C@@H]([C@@H](C)O)C(=O)N1)[C@@H](C)O)C(=O)N1CCC[C@H]1C(=O)N[C@@H](CO)C(=O)N[C@@H](CO)C(=O)N[C@H](C(=O)N[C@@H](CC(N)=O)C(=O)N[C@H](C(=O)NCC(=O)N[C@@H](Cc1c[nH]cn1)C(=O)N[C@@H](CC(N)=O)C(=O)N[C@H](C(=O)N[C@@H](Cc1ccc(O)cc1)C(N)=O)[C@@H](C)O)C(C)C)[C@@H](C)O
B3: N^ε1-[(4S)-4-carboxy-4-(19-carboxynonadecanoylamino)butanoyl]-[Ala14,Arg17,Pro21,Pro27,His34]-h-amylin (peptide)
peptide: K([γGlu-C20 diacid])CNTATCATQRLAAFLRHSSPNFGAIPSSTNVGHNTY-NH2
modifications: disulfide 2-7; N-terminus assumed
SMILES: CC[C@H](C)[C@H](NC(=O)[C@H](C)NC(=O)CNC(=O)[C@H](Cc1ccccc1)NC(=O)[C@H](CC(N)=O)NC(=O)[C@@H]1CCCN1C(=O)[C@H](CO)NC(=O)[C@H](CO)NC(=O)[C@H](Cc1c[nH]cn1)NC(=O)[C@H](CCCNC(=N)N)NC(=O)[C@H](CC(C)C)NC(=O)[C@H](Cc1ccccc1)NC(=O)[C@H](C)NC(=O)[C@H](C)NC(=O)[C@H](CC(C)C)NC(=O)[C@H](CCCNC(=N)N)NC(=O)[C@H](CCC(N)=O)NC(=O)[C@@H](NC(=O)[C@H](C)NC(=O)[C@@H]1CSSC[C@H](NC(=O)[C@@H](N)CCCCNC(=O)CC[C@H](NC(=O)CCCCCCCCCCCCCCCCCCC(=O)O)C(=O)O)C(=O)N[C@@H](CC(N)=O)C(=O)N[C@@H]([C@@H](C)O)C(=O)N[C@@H](C)C(=O)N[C@@H]([C@@H](C)O)C(=O)N1)[C@@H](C)O)C(=O)N1CCC[C@H]1C(=O)N[C@@H](CO)C(=O)N[C@@H](CO)C(=O)N[C@H](C(=O)N[C@@H](CC(N)=O)C(=O)N[C@H](C(=O)NCC(=O)N[C@@H](Cc1c[nH]cn1)C(=O)N[C@@H](CC(N)=O)C(=O)N[C@H](C(=O)N[C@@H](Cc1ccc(O)cc1)C(N)=O)[C@@H](C)O)C(C)C)[C@@H](C)O
notes: also called compound 93
B4: N^ε1-[(4S)-4-carboxy-4-(19-carboxynonadecanoylamino)butanoyl]-[Ala14,Arg17,Pro21,Pro27,Pro34]-h-amylin (peptide)
peptide: K([γGlu-C20 diacid])CNTATCATQRLAAFLRHSSPNFGAIPSSTNVGPNTY-NH2
modifications: disulfide 2-7; N-terminus assumed
SMILES: CC[C@H](C)[C@H](NC(=O)[C@H](C)NC(=O)CNC(=O)[C@H](Cc1ccccc1)NC(=O)[C@H](CC(N)=O)NC(=O)[C@@H]1CCCN1C(=O)[C@H](CO)NC(=O)[C@H](CO)NC(=O)[C@H](Cc1c[nH]cn1)NC(=O)[C@H](CCCNC(=N)N)NC(=O)[C@H](CC(C)C)NC(=O)[C@H](Cc1ccccc1)NC(=O)[C@H](C)NC(=O)[C@H](C)NC(=O)[C@H](CC(C)C)NC(=O)[C@H](CCCNC(=N)N)NC(=O)[C@H](CCC(N)=O)NC(=O)[C@@H](NC(=O)[C@H](C)NC(=O)[C@@H]1CSSC[C@H](NC(=O)[C@@H](N)CCCCNC(=O)CC[C@H](NC(=O)CCCCCCCCCCCCCCCCCCC(=O)O)C(=O)O)C(=O)N[C@@H](CC(N)=O)C(=O)N[C@@H]([C@@H](C)O)C(=O)N[C@@H](C)C(=O)N[C@@H]([C@@H](C)O)C(=O)N1)[C@@H](C)O)C(=O)N1CCC[C@H]1C(=O)N[C@@H](CO)C(=O)N[C@@H](CO)C(=O)N[C@H](C(=O)N[C@@H](CC(N)=O)C(=O)N[C@H](C(=O)NCC(=O)N1CCC[C@H]1C(=O)N[C@@H](CC(N)=O)C(=O)N[C@H](C(=O)N[C@@H](Cc1ccc(O)cc1)C(N)=O)[C@@H](C)O)C(C)C)[C@@H](C)O
notes: also called compound 94
B5: N^ε1-[(4S)-4-carboxy-4-(15-carboxypentadecanoylamino)butanoyl]-[Arg17,Pro21,Pro27,His34]-h-amylin (peptide)
peptide: K([γGlu-C16 diacid])CNTATCATQRLANFLRHSSPNFGAIPSSTNVGHNTY-NH2
modifications: disulfide 2-7; N-terminus assumed
SMILES: CC[C@H](C)[C@H](NC(=O)[C@H](C)NC(=O)CNC(=O)[C@H](Cc1ccccc1)NC(=O)[C@H](CC(N)=O)NC(=O)[C@@H]1CCCN1C(=O)[C@H](CO)NC(=O)[C@H](CO)NC(=O)[C@H](Cc1c[nH]cn1)NC(=O)[C@H](CCCNC(=N)N)NC(=O)[C@H](CC(C)C)NC(=O)[C@H](Cc1ccccc1)NC(=O)[C@H](CC(N)=O)NC(=O)[C@H](C)NC(=O)[C@H](CC(C)C)NC(=O)[C@H](CCCNC(=N)N)NC(=O)[C@H](CCC(N)=O)NC(=O)[C@@H](NC(=O)[C@H](C)NC(=O)[C@@H]1CSSC[C@H](NC(=O)[C@@H](N)CCCCNC(=O)CC[C@H](NC(=O)CCCCCCCCCCCCCCC(=O)O)C(=O)O)C(=O)N[C@@H](CC(N)=O)C(=O)N[C@@H]([C@@H](C)O)C(=O)N[C@@H](C)C(=O)N[C@@H]([C@@H](C)O)C(=O)N1)[C@@H](C)O)C(=O)N1CCC[C@H]1C(=O)N[C@@H](CO)C(=O)N[C@@H](CO)C(=O)N[C@H](C(=O)N[C@@H](CC(N)=O)C(=O)N[C@H](C(=O)NCC(=O)N[C@@H](Cc1c[nH]cn1)C(=O)N[C@@H](CC(N)=O)C(=O)N[C@H](C(=O)N[C@@H](Cc1ccc(O)cc1)C(N)=O)[C@@H](C)O)C(C)C)[C@@H](C)O

target: T1, rat calcitonin receptor; assay: ratio IC50 rat calcitonin receptor / IC50 rat amylin receptor (reference)

| Binder | Ratio rCT/rAmylin binding |
| --- | --- |
| B1 | 280 |
| B2 | 40.3 |
| B3 | 83.2 |
| B4 | 280 |
| B5 | 327 |

target: T1, rat calcitonin receptor; assay: SPA competition with 125I-calcitonin, membranes of BHK cells with rat calcitonin receptor (Assay VIII)

| Binder | IC50 [nM] |
| --- | --- |
| B1 | 707 |
| B2 | 47 |
| B3 | 131 |
| B4 | 111 |
| B5 | 404 |

target: T2, human calcitonin receptor; assay: ratio IC50 human calcitonin receptor / IC50 human amylin receptor (reference)
In short: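 IC₅₀ values were derived by one-site competition analysis of SPA counts. Cell membranes (35 ng/μL) with SPA beads were incubated with test compounds for 120 min at 25° C in Hepes buffer, pH 7.4, containing CaCl2, MgCl₂, OA and Tween20.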

| Binder | Ratio hCT/hAmylin binding |
| --- | --- |
| B1 | 23.5 |
| B2 | 59.4 |
| B3 | 101 |
| B4 | 46.3 |
| B5 | 18.5 |

target: T3, rat amylin receptor (rat calcitonin …); assay: SPA competition with 125I-rat amylin, membranes of BHK cells with rat calcitonin receptor + rat RAMP3 (Assay VI)

| Binder | IC50 [nM] |
| --- | --- |
| B1 | 2.52 |
| B2 | 1.17 |
| B3 | 1.58 |
| B4 | 0.397 |
| B5 | 1.24 |
